Test results: patent US20260258115A1 (MAPP BIOPHARMACEUTICAL, published 2026)
Numbering of substitutions follows the chain as printed.

B1: ADI-14342 (antibody, V domains shown)
VH: QVTLKESGPVLVKPTETLTLTCTVSGFSLSNAKMGVSWIRQPPGKALEWLAYISSNDEKSYSTSLKSRLTISKDTSKSQVVLTMTNMDPVDTATYYCARILLYDSSGYYLWYFDLWGRGTLVTVSS
VL: DIQVTQSPSSLSASVGDRVTITCRASQRITSYLNWYQHKPGKAPKLLIFAASSLHSGVPSTFSGSGSGTDFTLTISSLQPEDFATYYCQQSYSTPWTFGQGTKVEIK
notes: full-length IgG; also called Ab 10
B2: ADI-41677 (antibody, V domains shown)
VH: QVTLKESGPALVKPTQTLTLTCTFSGFSLSTSRMCVSWIRQPPGKALEWLARIDWDGDIYYSTSLRTRLTISKDTSKNQVVLTMTNMDPVDTATYYCARTSIYATGGYYLYYSDYWGQGTLVTVSS
VL: EIVMTQSPSSLSASVGDRVTITCRASQSIASYVNWFQQKPGKAPKLLIYAASNVHSGVPSRFSGSGSGTGFTLTISSLQPEDSAIYYCQQSYTTPWTFGQGTKLEIK
B3: ADI-41678 (antibody, V domains shown)
VH: EVQLVESGGGVVQPGGSLRLSCAASGFTFRTYGMHWVRQAPGKGLEWVAVISYDGSNKYYADSLMGRFTISRDNSKNTLYLQMNSLRAEDTAVYYCAKCFVPGSGGWYEYYFDYWGQGTLVTVSS
VL: QSVLTQPPSASGSPGQSVTISCTGTSSDVGGYNYVSWYQQHPGKAPKLMIYEVSKRPSGVPDRFSGSKSGNTASLTVSGLQAEDEADYYCSSYAGINNSVLFGGGTKLTVL
B4: ADI-41701 (antibody, V domains shown)
VH: QVQLVQSGAEVKKPGESLKISCQASGYSFTTYWIGWVRQTPGKGLEWMGIIYPGDSDTRYTPSFQGQVTISADKSISTAYLHWSSLKASDTAMYYCARLSGGYTFGFDYWGLGTLVTVSS
VL: NFMLTQPHSVSESPGKTVTISCTRSSGNIARYYVQWYQQRPGRAPTTVIYEDDQRPSGVPDRFSGSIDRSSNSASLTISGLKTEDEADYYCQSYDASNYVFATGTKVTVL
B5: ADI-41703 (antibody, V domains shown)
VH: EVQLLESGSGLVKPLQTLSLTCAVSGGSISSGGYSWSWIRQPPGKGLEWIGYIYPSGSTYYNPSLKSRVTMSIDRSKNQFSLRLTSVTAADTAVYYCARGDGNDFWSADSSHAFAIWGQGTMVTVSS
VL: EIVMTQSPGTLSLSPGERATLSCRASQIVGNSYLAWYQQKPGQAPRLLIYGASSRATGIPERFSGSGSGTDFTLTISRLEPEDFAVYHCQQYGSSPWTFGQGTKVEIK
notes: also called Ab 895; Antibody Number 895
B6: ADI-41720 (antibody, V domains shown)
VH: QVQLVESGGGVVQPGRSLRLSCAASGFTFSSYGMHWVRQAPGKGLEWVSVIWFDGSKKYYEDSVKGRFTISRDNSKNTLYLEMNSLRAEDTAVYYCAREAPVRLGELSLYGYFDYWGQGTLVTVSS
VL: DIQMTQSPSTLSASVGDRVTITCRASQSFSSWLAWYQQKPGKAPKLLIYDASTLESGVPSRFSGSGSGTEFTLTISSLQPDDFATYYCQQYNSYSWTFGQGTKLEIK
notes: also called Ab 896; Antibody Number 896
B7: ADI-41737 (antibody, V domains shown)
VH: QVQLQESGPGLVKPSQTLSLTCTVSGGSMISGDFYWSWIRQPPGKGLEWIGYIYYSGTTYYSPSLKSRVSMSIDTSKSQFSLKLSSVTAADTAVYYCARKYSYGEKAYHYWGQGTLVTVSS
VL: B5 VL with M4L, I28T, S32N, E61D, P81S, Q90H, S94T, W97Q
notes: also called Ab 897; Antibody Number 897
B8: ADI-41743 (antibody, V domains shown)
VH: EVQLVESGSGLVKPSQTLSLTCSVSGGSISSGGYSWSWIRQPPGKGLEWIGFIYNTGSTYSNPSLKSRLTLSVDRSNNRFSLKLNSVTAADTGVYFCARSGNVRQCDATGHCSTNYYFEYWGLGTLVTVSS
VL: EIVMTQSPATLSVSPGERATLSCRASQSVSSNLAWYQQKPGQAPRLLIYGASTRATGIPARFSGSGSGTEFTLTISSLQSEDFAVYYCQQHDDWPPLTFGGGTKVEIK
notes: also called Ab 898; Antibody Number 898
B9: ADI-41768 (antibody, V domains shown)
VH: EVQLVESGGGLVQPGRSLRLSCAASGFTFGDYAMHWVRQAPGKGLEWVSGITWNSGRVVYADSVKGRFTISRDNAKNSLYLQINSLRAEDTALYYCVKGSCNGGICYSADYWGQGTLVTVSS
VL: NFMLTQPHSVSESPGKTVTISCTRSSGSIARNFVHWYQQRPGSSPTTVIYEDNQRPSGVPGRFSGSIDSSSNSASLTISGLRSEDEADYYCQSYDSDNWVFGGGTKLTVL
notes: also called Ab 900; Antibody Number 900
B10: ADI-41778 (antibody, V domains shown)
VH: QVQLVESGGGQGQPGRSLRLSCAASGFTFDDYAMHWVRQVPGKGLEWVSGINWNSGYIGYADSVKGRFTISRDNAKNSLYLQMNSLRAEDTALYYCAKANNPIDSSGYNRGFDTWGQGTLVTVSS
VL: QSALTQPRSVSGSPGQSVTISCTGTSSDVGGYNYVSWYQQHPGKAPKLMIYDVNKRPSGVPDRFSGSKSDNTASLTISGLQAEDESDYFCCSYAGTYTWVFGGGTKVTVL
B11: ADI-41781 (antibody, V domains shown)
VH: QVQLVQSGAEVRKPGASVKVSCKAFGYTFTNFAISWVRQAPGQGLEWMGWIGPYNGDTDYEQKFQGRVTMTADTSSSTVFMELRSLRFDDTAVYYCARGKGSTIPLGYYIGMDVWGQGTTVTVSS
VL: ETTLTQSPSSLSASVGDRVTMTCRASQGISNYLAWYQQKPGKPPKLLIYLASSLQSGVPSRFSGSGSGTDFTLTISSLQPEDVATYYCQKYNSAPLTFGGGTKLEIK
B12: ADI-41794 (antibody, V domains shown)
VH: EVQLQQWGAGLLKPSETLSLTCAVYGGSFSGYYWSWIRQPPGKGLEWIGEINHSGSTNYNPSLKSRVTISVDTSKNQFSLKLSSVTAADTAVYYCARGTRTIVYCDGDCYQPWAYHYYGMDVWGQGTTVTVSS
VL: QSVVTQEPSVSAAPGQKVTISCSGGSSNIGNNYVSWYQHLPGTAPKLLIYDNDKRPSGIPDRFSGSKSGTSATLGITGLQTGDEADYYCGTWDSSLSAVVFGGGTKLTVL
B13: ADI-41799 (antibody, V domains shown)
VH: QVQLVQSGAEVKKPGSSVKVSCQASGGTFSTHALSWVRQTPGHGLEWVGGVLPVFGATKYPRKFQGRVTITADKSTNTAYMELSSLRSDDTAVYYCARVVVHSTITTAKDFFSGVHDIWGQGTMVTVSS
VL: DIRMTQSPSTLSASVGDRVTITCRASQTVSSWLAWYQQKPGKAPKLLIYQASSLESGVPSRFSGSGSGTEFTLTISGLQPDDFATYFCQHYNSYSPVTFGGGTKVEIK
notes: also called Ab 910; Antibody Number 910
B14: ADI-41803 (antibody, V domains shown)
VH: RCTLQQWGAGRVKPSETLSLTCAVYRGPFSGYYWSWIRQPPGKGLEWIGEINLGETNPGGSTHYNPSLRSRLSMSIDTSKKQFSLRVNSVTAADTAVYYCTRGPVSRIYDTSGSYSLNYYGMDVWGQGTTVTVSS
VL: DIRMTQSPSSLSASVGDRVTITCRASQGIRNDLGWYQQKPGRAPERLIYPASSLQGGVPSRFIASGSGTEFTLTISNLQPEDFATYYCLQHNSYPRTFGQGTKVEIK
notes: also called Ab 912; Antibody Number 912
B15: ADI-41804 (antibody, V domains shown)
VH: QVQLQQWGAGLLKPSETLSLTCSVLGGSFSGYYWTWIRQPPGKGLEWIGEITHDGSSNYNPSLNSRVTISVDTSNYQFSLKMRSVTAADTAVYYCARSPDLTIFGGLYFYYGISVWGQGTTVTVSS
VL: DIQMTQSPSSLSASMGDRVTITCRASQDISNYLAWYQQKPGKVPNLLIYAASTLQGGVPSRFSGSGSGTDFTLTISSLQPEDVAIYYCQKYKSAPRTFGQGTKVEIK
B16: ADI-41807 (antibody, V domains shown)
VH: EVQLLESGPALVKPTQTLTLTCTFSGFSLTTTRMSVSWIRQPPGKALEWLARIDWDDDKYYSTSLKTRLTISKDTSKNQVVLTMTNMDPVDTATYFCARVNVYAANGYYSYYLDYWGQGTLVTVSS
VL: DIVMTQTPSSLSASVGDRVTITCRTSQSSSRYLNWYQKEPGKAPRLLIYLASALRSGVPSRFSGSGSGTDFTLTISSLQSEDFATYYCQQTYSIPWTFGQGTKVEIK
B17: ADI-41808 (antibody, V domains shown)
VH: QVQLVQSGAELKKPGSSVRISCKVSGVTSDNYAITWVRQAPGQGLEWMGRVIPIFPVPQYAQKFQGRVTLSADKSTRTAYLELHSLRSEDTATYYCATHRPSDSWGQGTLVTVSS
VL: DIRVTQSPSTLSASVGDRVTITCRASQNINSWLAWYQQKPGKAPKLLIFKASSLESGVPARFSGSGFGTEFTLTITSLQPDDFASYYCQQYDTYPYPFGQGTKVEIK
notes: also called Ab 916; Antibody Number 916
B18: ADI-41811 (antibody, V domains shown)
VH: QVQLQQSGPRLVKPSHTLSLTCVISGDSVSSGSAAWSWIRQSPSRGLEWLGRTYYRSKWYYDYAVSVKGRIIIQPDTSKNQFSLQLNSVSPEDTAVYYCARDPDSGNYFHYYGMDVWGQGTTVTVSS
VL: DIVMTQSPATLSLSPGERATLSCRASQSVDVYFAWYQQKPGQAPRLLIYDASKRASGVPARFSGSASGTDFTLTISSLEPEDFAVYYCQQRAKWPPYTFGQGTKLEIK

Biological target: T1, RSV postfusion F (postF), subtype A (respiratory syncytial virus subtype A, UniProt P03420 26-513)
T1 construct: also called Postfusion subtype A; F deltaFP
Assay: BLI, IgG

Binder	Kd
B1	0.495 nM

Biological target: T2, RSV prefusion F (preF), subtype B (respiratory syncytial virus subtype B)
T2 construct: also called Prefusion subtype B
Assay: BLI, IgG

Binder	Kd
B1	26.1 nM

Biological target: RSV F on RSV subtype A virus (mKate-RSV A2) (respiratory syncytial virus A2, UniProt P03420 26-574)
Assay: cell-based or functional assay

Binder	Neut IC50 subtype A
B1	1.75 µg/mL

Biological target: RSV F on RSV subtype B virus (mKate-RSV B 18537) (respiratory syncytial virus B 18537, UniProt P13843 26-574)
Assay: cell-based or functional assay

Binder	Neut IC50 subtype B
B1	8.27 µg/mL

Biological target: RSV F on RSV-A2 virus (Respiratory syncytial virus, RSV-A2, UniProt P03420 26-574)
Assay: cell-based or functional assay

Binder	Neutralization IC50 (RSV subtype A)
B2	> 25 µg/mL
B3	> 25 µg/mL
B4	> 25 µg/mL
B5	> 25 µg/mL
B6	> 25 µg/mL
B7	> 25 µg/mL
B8	> 25 µg/mL
B9	> 25 µg/mL
B10	> 25 µg/mL
B11	> 25 µg/mL
B12	> 25 µg/mL
B13	> 25 µg/mL
B14	> 25 µg/mL
B15	> 25 µg/mL
B16	> 25 µg/mL
B17	> 25 µg/mL
B18	> 25 µg/mL

Biological target: RSV prefusion F (preF), DS-Cav1 (Respiratory syncytial virus, UniProt P03420 26-513)
Assay: BLI, IgG on anti-human IgG sensor, 100 nM antigen

Binder	Kd
B2	1.28 nM
B3	2.92 nM
B4	1.93 nM
B5	4.2 nM
B6	22 nM
B7	3.58 nM
B8	5.45 nM
B9	1.61 nM
B10	2.75 nM
B11	3.46 nM
B12	3.31 nM
B13	3.28 nM
B14	1.99 nM
B15	0.331 nM
B16	1.5 nM
B17	13.9 nM
B18	1.64 nM

Biological target: RSV postfusion F (postF), F ΔFP (Respiratory syncytial virus, UniProt P03420 26-513)
Assay: BLI, IgG on anti-human IgG sensor, 100 nM antigen

Binder	Kd
B2	0.339 nM
B3	1.17 nM
B4	0.289 nM
B5	0.843 nM
B6	1.17 nM
B7	1.58 nM
B8	1.27 nM
B9	0.338 nM
B10	0.504 nM
B11	0.653 nM
B12	3.01 nM
B13	1.1 nM
B14	0.711 nM
B15	0.436 nM
B16	1.19 nM
B17	22.5 nM
B18	0.744 nM
